Results as given in patent publication US20250282852A1 (SINOMAB BIOSCIENCE, published 2025).

How the values were obtained:
[1] = target: T1, human CD22 protein (Sino Biological) (human); experiment: ELISA on coated human CD22 protein, anti-human Fc HRP detection
T1 construct: Bought protein coated on ELISA strips
Procedure: The binding of the different bispecific antibodies to their respective antigens is tested with standard ELISA method known to those skilled in the art. Using SM03-Adu as an example, 2 μg/mL of human CD22 protein (Sino Biological) or 5 μg/mL of Aβ oligomer are coated separately onto ELISA stripes (Santa Cruz) overnight at 4° C. or 1 hour at room temperature, respectively. ELISA stripes are blocked with 1% BSA in PBS. Stripes are washed 2 times with PBS. Bispecific antibodies are added in the following concentration, e.g. 10 μg/mL, 2 μg/mL, 0.4 μg/mL, 0.08 μg/mL, 0.016 μg/mL, 0.0032 μg/mL, 0.00064 μg/mL and incubated for 1 hour at room temperature. Stripes are washed 3 times with PBS. Stripes are incubated with anti-human Fc HRP-conjugated antibody diluted 1:6000 in PBS for 1 hour at room temperature. Fifty μL TMB (Invitrogem) is then added. After 30 minutes incubation at room temperature, 50 μL stop solution (2N H2SO4) is added to stop the reaction. Coloration are read by plate reader.

[2] = target: T2, CD33 on HMC-3 cells (human, UniProt P20138 18-364); experiment: flow cytometry on fixed HMC-3 cells, 10 µg/mL, anti-human Fc Alexa Fluor 488; graded + (weakest) to +++++ (highest)
T2 construct: Native antigen on HMC-3
T2 sequence (P20138 18-364 limits assumed): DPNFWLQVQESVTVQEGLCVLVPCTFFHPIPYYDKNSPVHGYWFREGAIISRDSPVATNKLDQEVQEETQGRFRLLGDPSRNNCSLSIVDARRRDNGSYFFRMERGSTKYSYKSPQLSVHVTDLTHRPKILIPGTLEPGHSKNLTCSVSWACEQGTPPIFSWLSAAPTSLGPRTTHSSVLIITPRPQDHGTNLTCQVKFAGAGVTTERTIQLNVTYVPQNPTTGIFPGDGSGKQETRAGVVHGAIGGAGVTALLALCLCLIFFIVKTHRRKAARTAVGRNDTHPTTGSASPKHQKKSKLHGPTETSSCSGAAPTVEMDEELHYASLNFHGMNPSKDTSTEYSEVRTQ
Procedure: The binding of different bispecific antibodies to HMC-3 cells is evaluated. Briefly, HMC-3 cells are seeded onto 6 well plate at a density of […]. After plating and culture for overnight, cells are detached with TrypLE™ Express enzyme. Cells are centrifuged at 300 g for 5 minutes. Cell pellets are washed once with phosphate buffer saline (pH7.4). Cells are fixed with 4% PFA in PBS for 5 minutes at room temperature. Cells are washed once with PBS. Bispecifc antibodies at a concentration of10 μg/mL are incubated with HMC-3 for 1 hour at room temperature. Cells are then washed twice with PBS. Cells are incubated with anti-human Fc Alexafluor 488-conjugated antibody diluted 1:1000 in PBS for 1 hour at room temperature. Cells are washed twice with PBS. Cell are centrifuged at 300 g for 5 minutes. Cell pellet is resuspended with 1% BSA in PBS and proceed to flow cytometry. FIG. 5 illustrates a representative result of HMC-3 cell binding by SM03-Adu.

B1: SM06-Adu (bispecific antibody)
heavy: not shown
light: DIQLTQSPSSLSASVGDRVTISCRASQDISNYLNWYQQKPGKAPKLLIYYTSILHSGVPSRFSGSGSGTEFTLTISSLQPEDFATYFCQQGNTLPWTFGGGTKVEIKRTVAAPSVFIFPPSDEQLKSGTASVVCLLNNFYPREAKVQWKVDNALQSGNSQESVTEQDSKDSTYSLSSTLTLSKADYEKHKVYACEVTHQGLSSPVTKSFNRGEC
[1]
  EC50 (read off the curve): ~0.1 µg/mL

B2: Lin-Adu (bispecific antibody)
heavy: not shown
light: DIQMTQSPSSLSASVGDRVTITCRASESVDNYGISFMNWFQQKPGKAPKLLIYAASNQGSGVPSRFSGSGSGTDFTLTISSLQPDDFATYYCQQSKEVPWTFGQGTKVEIKRTVAAPSVFIFPPSDEQLKSGTASVVCLLNNFYPREAKVQWKVDNALQSGNSQESVTEQDSKDSTYSLSSTLTLSKADYEKHKVYACEVTHQGLSSPVTKSFNRGEC
[2]
  binding result: binds
